Laboratory results as given in PMC3892784 (mBio, 2013).

B2: FrgC (domain or fragment, UniProt Q9RF09 1-466, looked up)
chain: MNESLRGTVLLVDDDPAVAKVLGALLTQAGLTTHAARDGQEALALLASKPVDVVVSDVRMPGMDGLQVLAEVARGWPDVPVILLTAHGTVPLAVEAMKAGAADFVLKPFDREEILFTVRKALLRAQG
B3: NtrC1189 (domain or fragment, UniProt Q1DD25 1-450, looked up)
chain: MKPGPRILIVDDDSGVLRALRGLLSDEGFTPVEARSAAEASQLLDAPEGPPAMMLLDLRMPGETGLELLARLPRPFPAPVVVLSGEASPAEAVQALRLGATDFVEKPPSPERLLTAVRNALALGS
B4: T. maritima RR468 (natural protein, UniProt Q9WYT9 1-122, looked up)
chain: MSKKVLLVDDSAVLRKIVSFNLKKEGYEVIEAENGQIALEKLSEFTPDLIVLDIMMPVMDGFTVLKKLQEKEEWKRIPVIVLTAKGGEEDESLALSLGARKVMRKPFSPSQFIEEVKHLLNE

Columns and labels:
[1] = target: CrdS6 (Myxococcus xanthus (strain DZ2 genomic DNA)); experiment: other fluorescence titration
[2] = target: T. maritima HK853 (T. maritima) (UniProt Q9WZV7); experiment: ITC
[3] = target: FrgB (Myxococcus xanthus (strain DZ2 genomic DNA)) (UniProt Q9RF10); experiment: ITC
[4] = target: CrdS6 (Myxococcus xanthus (strain DZ2 genomic DNA)); experiment: ITC
CrdA [5] = target: T1, CrdA (Myxococcus xanthus (strain DZ2 genomic …, UniProt Q84I63 1-498)); experiment: other fluorescence titration
T1 sequence (looked up): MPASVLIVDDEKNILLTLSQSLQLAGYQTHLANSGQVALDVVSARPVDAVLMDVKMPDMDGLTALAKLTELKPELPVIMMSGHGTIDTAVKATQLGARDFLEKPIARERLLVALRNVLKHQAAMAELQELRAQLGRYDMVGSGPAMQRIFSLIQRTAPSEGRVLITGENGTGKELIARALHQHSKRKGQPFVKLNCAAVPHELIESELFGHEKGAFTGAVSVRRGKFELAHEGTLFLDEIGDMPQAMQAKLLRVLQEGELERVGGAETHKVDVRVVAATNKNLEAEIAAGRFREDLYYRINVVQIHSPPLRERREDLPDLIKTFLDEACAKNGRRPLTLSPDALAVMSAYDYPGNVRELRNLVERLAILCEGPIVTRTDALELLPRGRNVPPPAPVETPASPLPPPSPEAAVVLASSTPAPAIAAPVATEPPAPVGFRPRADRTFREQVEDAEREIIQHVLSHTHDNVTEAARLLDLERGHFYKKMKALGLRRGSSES

T. maritima RR468 = target: B4; experiment: ITC
FrgC = target: B2; experiment: ITC
NtrC1189 = target: B3; experiment: ITC
CrdA [6] = target: T1, CrdA; experiment: ITC
FrgB = target: T2, FrgB (Myxococcus xanthus (strain DZ2 genomic …, UniProt Q9RF10 1-510)); experiment: ITC
T2 sequence (looked up): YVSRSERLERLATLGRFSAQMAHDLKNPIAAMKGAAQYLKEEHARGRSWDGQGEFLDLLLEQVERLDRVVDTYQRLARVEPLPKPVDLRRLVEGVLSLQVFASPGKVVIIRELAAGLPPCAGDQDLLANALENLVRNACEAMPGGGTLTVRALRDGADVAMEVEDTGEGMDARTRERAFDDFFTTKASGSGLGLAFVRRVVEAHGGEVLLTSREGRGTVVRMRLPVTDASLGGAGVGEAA

HK1190 = target: T3, HK1190 (Myxococcus xanthus (strain DZ2 genomic …, UniProt Q1DD24 1-424)); experiment: ITC
T3 sequence (looked up): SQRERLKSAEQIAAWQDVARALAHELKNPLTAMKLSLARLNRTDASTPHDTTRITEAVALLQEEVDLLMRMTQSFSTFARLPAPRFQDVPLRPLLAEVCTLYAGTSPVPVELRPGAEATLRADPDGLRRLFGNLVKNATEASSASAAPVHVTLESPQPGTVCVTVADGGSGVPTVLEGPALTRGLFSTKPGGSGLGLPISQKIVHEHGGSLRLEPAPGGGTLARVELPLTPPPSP

T. maritima HK853 = target: T4, T. maritima HK853 (T. maritima, UniProt Q9WZV7 232-489); experiment: ITC
T4 sequence (looked up): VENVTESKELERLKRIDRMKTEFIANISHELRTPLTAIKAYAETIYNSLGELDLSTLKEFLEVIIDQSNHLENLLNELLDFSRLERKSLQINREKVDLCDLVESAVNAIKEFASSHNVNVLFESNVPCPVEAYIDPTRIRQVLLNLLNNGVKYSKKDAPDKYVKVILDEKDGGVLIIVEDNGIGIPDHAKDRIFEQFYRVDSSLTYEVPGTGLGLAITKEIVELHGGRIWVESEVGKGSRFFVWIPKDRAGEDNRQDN

How did the Kd [1] turn out when “CrdA (from UniProt Q84I63 1-498) (domain or fragment)” was run?
The Kd was greater than 200 µM.

What about the Kd [2] of the same molecule?
The Kd was greater than 75 µM.

What about the Kd [3] of the same molecule?
The Kd was greater than 75 µM.

What about the Kd [4] of the same molecule?
Its Kd is greater than 75 µM.

B1: CrdS (domain or fragment)
chain: RLMASERIAAWQEVARRLAHEIKNPLTPIRMSLETLQAAQEAKHPRFQDMFKESAGVVLEEVDRLRRIVDEFSHFARMPKPQLAPVDLGELAQSVLALYATPPTGIQILPTLQTGVVARVDRDQLTQVLVNLVKNAEEAMASTGGTLRVRVRSTEADAIVEVEDSGPGIPLEHRARIFEPYFTTKDGGTGLGLAIASRILQEHGGKLEVGGEPGHGARFSLVLPRAA
With B1 as the molecule, how does the Kd (CrdA [5]) read?
The Kd was 2.28 ± 0.66 µM.

And the Kd (T. maritima RR468)?
The Kd was greater than 75 µM.

And the Kd (FrgC)?
The Kd was greater than 75 µM.

What about the Kd (NtrC1189) of the same molecule?
The Kd was greater than 75 µM.

And the Kd (CrdA [6])?
The Kd was 1.41 µM.

What does the source list for B2?
Kd (FrgB): 1.23 µM; Kd (HK1190): > 35 µM; Kd (T. maritima HK853): > 55 µM

Which results are given for B3?
Kd (FrgB): > 75 µM; Kd (HK1190): 1.23 µM; Kd (T. maritima HK853): > 55 µM

Which Kd (FrgB) does the source give for B4 here?
The Kd was greater than 75 µM.

What about the Kd (HK1190) of the same molecule?
Its Kd is greater than 55 µM.

What about the Kd (T. maritima HK853) of the same molecule?
The Kd was 1.16 µM.

B5: CrdS6 (domain or fragment)
chain: RLMASERIAAWQEVARRLAHEIKNPLTAIRLSLARLQAAQEAKHPRFQDMFKESAGVVLEEVDRLRRIVDEFSHFARMPKPQLAPVDLGELAQSVLALYATPPTGIQILPTLQTGVVARVDRDQLTQVLVNLVKNAEEAMASTGGTLRVRVRSTEADAIVEVEDSGPGIPLEHRARIFEPYFTTKDGGTGLGLAIASRILQEHGGKLEVGGEPGHGARFSLVLPRAA
How did the Kd (NtrC1189) turn out when B5 was run?
The Kd was 2.09 µM.
